Assay results: US20080261906

Assays:
[1] = biological target: Rab1 GTPase (GTP-loaded, purified)
[2] = biological target: other Rabs and Arfs of the panel (27 mammalian Rabs and several different ARFs were tested)

Protein	catalytic efficiency (kcat/Km) of GAP-accelerated GTP hydrolysis [1]	catalytic efficiency relative to the intrinsic rate constant for GTP hydrolysis [2]	kinetics of Rab1 GTP hydrolysis (GAP assay) [1]
TBC1D20 with a 6xHIS N-terminal tag (bacterially expressed, pDEST-17) (protein) MALRSAQGDGPTSGHWDGGAEKADFNAKRKKKVAEIHQALNSDPTDVAALRRMAISEGGLLTDEIRRKVWPKLLNVNANDPPPISGKNLRQMSKDYQQVLLDVRRSLRRFPPGMPEEQREGLQEELIDIILLILERNPQLHYYQGYHDIVVTFLLVVGERLATSLVEKLSTHHLRDFMDPTMDNTKHILNYLMPIIDQVNPELHDFMQSAEVGTIFALSWLITWFGHVLSDFRHVVRLYDFFLACHPLMPIYFAAVIVLYREQEVLDCDCDMASVHHLLSQIPQDLPYETLISRAGDLFVQFPPSELAREAAAQQQAERTAASTFKDFELASAQQRPDMVLRQRFRGLLRPEDRTKDVLTKPRTNRFVKLAVMGLTVALGAAALAVVKSALEWAPKFQLQLFP	Activation of Rab1GTP hydrolysis by TBC1D20 has an apparent catalytic efficiency (kcat/Km) of 360 M^-1s^-1	Note that only Rab1 displays significant activation by TBC1D20	
mutant TBC1D20 (R66A, R105A), 6xHIS N-terminal tag, bacterially expressed (protein) MALRSAQGDGPTSGHWDGGAEKADFNAKRKKKVAEIHQALNSDPTDVAALRRMAISEGGLLTDEIARKVWPKLLNVNANDPPPISGKNLRQMSKDYQQVLLDVRASLRRFPPGMPEEQREGLQEELIDIILLILERNPQLHYYQGYHDIVVTFLLVVGERLATSLVEKLSTHHLRDFMDPTMDNTKHILNYLMPIIDQVNPELHDFMQSAEVGTIFALSWLITWFGHVLSDFRHVVRLYDFFLACHPLMPIYFAAVIVLYREQEVLDCDCDMASVHHLLSQIPQDLPYETLISRAGDLFVQFPPSELAREAAAQQQAERTAASTFKDFELASAQQRPDMVLRQRFRGLLRPEDRTKDVLTKPRTNRFVKLAVMGLTVALGAAALAVVKSALEWAPKFQLQLFP			the GTPase activating activity of TBC1D20 on Rab1 was abolished when these conserved arginine residues were mutated to alanine
